Results published in PMC10397247.

Assays:
4H496-bA = biological target: T1, 4H496-bA; assay: two-hybrid library CCNG1;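 also: natural log of median RNA to DNA barcode read ratio; higher means stronger binding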
T1 chain: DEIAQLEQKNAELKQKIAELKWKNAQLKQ

P9A-bS = biological target: T2, P9A-bS; assay: two-hybrid library CCNG1;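 also: natural log of median RNA to DNA barcode read ratio; higher means stronger binding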
T2 chain: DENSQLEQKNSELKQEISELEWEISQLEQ

P7A-bS = biological target: T3, P7A-bS; assay: two-hybrid library CCNG1;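 also: natural log of median RNA to DNA barcode read ratio; higher means stronger binding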
T3 chain: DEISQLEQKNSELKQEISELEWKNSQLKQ

P8A-bS = biological target: T4, P8A-bS; assay: two-hybrid library CCNG1;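 also: natural log of median RNA to DNA barcode read ratio; higher means stronger binding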
T4 chain: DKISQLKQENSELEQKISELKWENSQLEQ

P6A-bS = biological target: T5, P6A-bS; assay: two-hybrid library CCNG1;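 also: natural log of median RNA to DNA barcode read ratio; higher means stronger binding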
T5 chain: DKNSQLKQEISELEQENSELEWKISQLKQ

APC6108-AA = biological target: T6, APC6108-AA; assay: two-hybrid library CCmax; conditions: mean of both orientations;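 also: natural log of median RNA to DNA barcode read ratio; higher means stronger binding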
T6 chain: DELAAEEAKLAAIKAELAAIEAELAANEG

APC1015-AA = biological target: T7, APC1015-AA; assay: two-hybrid library CCmax; conditions: mean of both orientations
T7 chain: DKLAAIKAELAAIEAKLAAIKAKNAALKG

APC232-AA = biological target: T8, APC232-AA; assay: two-hybrid library CCmax; conditions: mean of both orientations
T8 chain: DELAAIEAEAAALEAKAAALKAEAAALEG

APC2237-AA = biological target: T9, APC2237-AA; assay: two-hybrid library CCmax; conditions: mean of both orientations
T9 chain: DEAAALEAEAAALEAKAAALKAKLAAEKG

APC3645-AA = biological target: T10, APC3645-AA; assay: two-hybrid library CCmax; conditions: mean of both orientations
T10 chain: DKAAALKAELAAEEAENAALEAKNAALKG

APC9096-AA = biological target: T11, APC9096-AA; assay: two-hybrid library CCmax; conditions: mean of both orientations
T11 chain: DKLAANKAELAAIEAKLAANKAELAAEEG

APC9319-AA = biological target: T12, APC9319-AA; assay: two-hybrid library CCmax; conditions: mean of both orientations
T12 chain: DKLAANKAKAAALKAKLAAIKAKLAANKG

APC7099-AA = biological target: T13, APC7099-AA; assay: two-hybrid library CCmax; conditions: mean of both orientations
T13 chain: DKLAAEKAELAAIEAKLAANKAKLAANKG

APC2405-AA = biological target: T14, APC2405-AA; assay: two-hybrid library CCmax; conditions: mean of both orientations
T14 chain: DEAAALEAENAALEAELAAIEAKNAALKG

APC8191-AA = biological target: T15, APC8191-AA; assay: two-hybrid library CCmax; conditions: mean of both orientations
T15 chain: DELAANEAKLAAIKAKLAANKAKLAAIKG

4H733-AA = biological target: T16, 4H733-AA; assay: two-hybrid library CCmax
T16 chain: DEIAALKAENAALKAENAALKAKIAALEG

APC1434-AA = biological target: T17, APC1434-AA; assay: two-hybrid library CCmax; conditions: mean of both orientations
T17 chain: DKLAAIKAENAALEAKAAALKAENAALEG

APC4011-AA = biological target: T18, APC4011-AA; assay: two-hybrid library CCmax; conditions: mean of both orientations
T18 chain: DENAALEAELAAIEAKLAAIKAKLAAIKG

4H807-AA = biological target: T19, 4H807-AA; assay: two-hybrid library CCmax; conditions: mean of both orientations
T19 chain: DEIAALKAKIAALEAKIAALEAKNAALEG

APC4436-AA = biological target: T20, APC4436-AA; assay: two-hybrid library CCmax; conditions: mean of both orientations
T20 chain: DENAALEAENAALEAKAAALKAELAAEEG

APC4264-AA = biological target: T21, APC4264-AA; assay: two-hybrid library CCmax; conditions: mean of both orientations
T21 chain: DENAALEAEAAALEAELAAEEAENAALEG

APC5383-AA = biological target: T22, APC5383-AA; assay: two-hybrid library CCmax; conditions: mean of both orientations
T22 chain: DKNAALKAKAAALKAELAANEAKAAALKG

APC8910-AA = biological target: T23, APC8910-AA; assay: two-hybrid library CCmax; conditions: mean of both orientations
T23 chain: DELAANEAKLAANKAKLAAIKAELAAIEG

4H2888-AA = biological target: T24, 4H2888-AA; assay: two-hybrid library CCmax; conditions: mean of both orientations
T24 chain: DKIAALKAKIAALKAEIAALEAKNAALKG

4H3625-AA = biological target: T25, 4H3625-AA; assay: two-hybrid library CCmax; conditions: mean of both orientations
T25 chain: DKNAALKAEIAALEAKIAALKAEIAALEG

4H451-AA = biological target: T26, 4H451-AA; assay: two-hybrid library CCmax; conditions: mean of both orientations
T26 chain: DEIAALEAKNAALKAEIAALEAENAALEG

4H3905-AA = biological target: T27, 4H3905-AA; assay: two-hybrid library CCmax; conditions: mean of both orientations
T27 chain: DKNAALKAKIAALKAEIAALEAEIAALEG

4H_BCR = biological target: T28, 4H_BCR; assay: two-hybrid library CCmax; conditions: mean of both orientations
T28 chain: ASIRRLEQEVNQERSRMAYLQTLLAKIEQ

GCN2_T = assay: two-hybrid library CCmax
4H337-AA = biological target: T29, 4H337-AA; assay: two-hybrid library CCmax; conditions: mean of both orientations
T29 chain: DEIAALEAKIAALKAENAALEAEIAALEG

4H2736-AA = biological target: T30, 4H2736-AA; assay: two-hybrid library CCmax
T30 chain: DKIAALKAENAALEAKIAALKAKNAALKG

4H384-AA = biological target: T31, 4H384-AA; assay: two-hybrid library CCmax; conditions: mean of both orientations
T31 chain: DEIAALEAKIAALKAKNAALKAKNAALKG

O11-AA = biological target: T32, O11-AA; assay: two-hybrid library CCmax; conditions: mean of both orientations
T32 chain: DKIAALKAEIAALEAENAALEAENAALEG

O13-AA = biological target: T33, O13-AA; assay: two-hybrid library CCmax; conditions: mean of both orientations
T33 chain: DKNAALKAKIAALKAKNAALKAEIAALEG

4H_APH = biological target: T34, 4H_APH; assay: two-hybrid library CCmax; conditions: mean of both orientations
T34 chain: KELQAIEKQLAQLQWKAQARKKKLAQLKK

4H43-AA = biological target: T35, 4H43-AA; assay: two-hybrid library CCmax
T35 chain: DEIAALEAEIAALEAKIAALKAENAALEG

O14-AA = biological target: T36, O14-AA; assay: two-hybrid library CCmax; conditions: mean of both orientations
T36 chain: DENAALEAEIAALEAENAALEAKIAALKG

4H3049-AA = biological target: T37, 4H3049-AA; assay: two-hybrid library CCmax; conditions: mean of both orientations
T37 chain: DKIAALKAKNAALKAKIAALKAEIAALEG

4H3587-AA = biological target: T38, 4H3587-AA; assay: two-hybrid library CCmax; conditions: mean of both orientations
T38 chain: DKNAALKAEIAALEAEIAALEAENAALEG

4H510-AA = biological target: T39, 4H510-AA; assay: two-hybrid library CCmax; conditions: mean of both orientations
T39 chain: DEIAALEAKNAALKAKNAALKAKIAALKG

4H3590-AA = biological target: T40, 4H3590-AA; assay: two-hybrid library CCmax; conditions: mean of both orientations
T40 chain: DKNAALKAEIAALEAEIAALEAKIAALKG

4H_GCN4 = assay: two-hybrid library CCmax; conditions: mean of both orientations
4H4038-AA = biological target: T41, 4H4038-AA; assay: two-hybrid library CCmax; conditions: mean of both orientations
T41 chain: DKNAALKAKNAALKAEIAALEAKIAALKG

4H470-bH = biological target: T42, 4H470-bH; assay: two-hybrid library CCNG1
T42 chain: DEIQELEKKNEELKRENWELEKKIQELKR

4H3961-bH = biological target: T43, 4H3961-bH; assay: two-hybrid library CCNG1; conditions: mean of both orientations
T43 chain: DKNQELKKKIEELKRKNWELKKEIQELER

4H457-bN = biological target: T44, 4H457-bN; assay: two-hybrid library CCNG1
T44 chain: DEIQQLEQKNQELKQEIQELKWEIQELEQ

4H797-bN = biological target: T45, 4H797-bN; assay: two-hybrid library CCNG1
T45 chain: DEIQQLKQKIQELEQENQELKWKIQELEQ

4H908-bN = biological target: T46, 4H908-bN; assay: two-hybrid library CCNG1
T46 chain: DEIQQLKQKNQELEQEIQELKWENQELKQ

4H568-bN = biological target: T47, 4H568-bN; assay: two-hybrid library CCNG1
T47 chain: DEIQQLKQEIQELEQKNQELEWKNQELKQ

4H4001-bN = biological target: T48, 4H4001-bN; assay: two-hybrid library CCNG1
T48 chain: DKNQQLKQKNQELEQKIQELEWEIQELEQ

4H967-bN = biological target: T49, 4H967-bN; assay: two-hybrid library CCNG1
T49 chain: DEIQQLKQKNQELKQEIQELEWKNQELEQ

4H717-bN = biological target: T50, 4H717-bN; assay: two-hybrid library CCNG1
T50 chain: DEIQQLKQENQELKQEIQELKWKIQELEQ

4H918-bN = biological target: T51, 4H918-bN; assay: two-hybrid library CCNG1
T51 chain: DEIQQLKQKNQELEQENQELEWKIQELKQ

4H754-bN = biological target: T52, 4H754-bN; assay: two-hybrid library CCNG1
T52 chain: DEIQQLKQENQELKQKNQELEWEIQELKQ

4H953-bN = biological target: T53, 4H953-bN; assay: two-hybrid library CCNG1
T53 chain: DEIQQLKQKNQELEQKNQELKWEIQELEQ

4H687-bN = biological target: T54, 4H687-bN; assay: two-hybrid library CCNG1
T54 chain: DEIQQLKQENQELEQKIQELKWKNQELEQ

4H607-bN = biological target: T55, 4H607-bN; assay: two-hybrid library CCNG1
T55 chain: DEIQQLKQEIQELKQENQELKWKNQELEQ

4H72-bN = biological target: T56, 4H72-bN; assay: two-hybrid library CCNG1
T56 chain: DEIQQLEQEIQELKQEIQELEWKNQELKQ

4H454-bN = biological target: T57, 4H454-bN; assay: two-hybrid library CCNG1
T57 chain: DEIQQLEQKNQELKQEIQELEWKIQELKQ

4H883-bN = biological target: T58, 4H883-bN; assay: two-hybrid library CCNG1
T58 chain: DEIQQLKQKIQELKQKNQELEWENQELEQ

4H462-bN = biological target: T59, 4H462-bN; assay: two-hybrid library CCNG1
T59 chain: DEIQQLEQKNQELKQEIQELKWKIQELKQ

Chain of 4H_GCN4 (chain, as listed by the source): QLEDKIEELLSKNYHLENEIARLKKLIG

DEIAQLEQKNAELKQKIAELKWKNAQLKQ [4H496-bA]
interaction score (4H496-bA): -0.521

DKNSQLKQEISELEQENSELEWKISQLKQ [P6A-bS]
interaction score (P9A-bS): -0.77
interaction score (P7A-bS): 1.24
interaction score (P8A-bS): 0.0461
interaction score (P6A-bS): -2.31

DEIAALKAENAALKAENAALKAKIAALEG [4H733-AA]
interaction score (APC6108-AA): -1.39
interaction score (APC1015-AA): -1.46
interaction score (APC232-AA): -1.82
interaction score (APC2237-AA): -1.41
interaction score (APC3645-AA): -1.25
interaction score (APC9096-AA): -1.46
interaction score (APC9319-AA): -2.02
interaction score (APC7099-AA): -1.67
interaction score (APC2405-AA): -1.28
interaction score (APC8191-AA): -1.19
interaction score (4H733-AA): 2.16
interaction score (APC1434-AA): -1.75
interaction score (APC4011-AA): -1.54
interaction score (4H807-AA): -1.53
interaction score (APC4436-AA): -1.66
interaction score (APC4264-AA): -1.83
interaction score (APC5383-AA): -2.26
interaction score (APC8910-AA): -1.37

DKIAALKAENAALEAKIAALKAKNAALKG [4H2736-AA]
interaction score (4H2888-AA): -0.685
interaction score (4H3625-AA): 0.218
interaction score (4H451-AA): 0.882
interaction score (4H3905-AA): -1.18
interaction score (4H_BCR): -1.69
interaction score (GCN2_T): -0.66
interaction score (4H337-AA): -0.315
interaction score (4H2736-AA): -1.62
interaction score (4H384-AA): -1.67
interaction score (O11-AA): -0.615
interaction score (O13-AA): 0.351
interaction score (4H_APH): -1.33
interaction score (4H43-AA): -0.422
interaction score (O14-AA): -0.38
interaction score (4H3049-AA): 0.275
interaction score (4H3587-AA): -1.26
interaction score (4H510-AA): -1.15
interaction score (4H3590-AA): -0.712
interaction score (4H_GCN4): -2.46
interaction score (4H4038-AA): -0.154

DKNQELKKKIEELKRKNWELKKEIQELER [4H3961-bH]
interaction score (4H470-bH): 1.3
interaction score (4H3961-bH): -1.2

DKNQQLKQKNQELEQKIQELEWEIQELEQ [4H4001-bN]
interaction score (4H457-bN): -0.688
interaction score (4H797-bN): -1.1
interaction score (4H908-bN): -1.27
interaction score (4H568-bN): -2.33
interaction score (4H4001-bN): -0.804
interaction score (4H967-bN): -2.32
interaction score (4H717-bN): -1.63
interaction score (4H918-bN): -0.935
interaction score (4H754-bN): -1.75
interaction score (4H953-bN): -1.5
interaction score (4H687-bN): -1.77
interaction score (4H607-bN): -1.46
interaction score (4H72-bN): -1.03
interaction score (4H454-bN): 0.0134
interaction score (4H883-bN): -0.641
interaction score (4H462-bN): -0.667
interaction score (P6A-bS): -2.58
